Experimental findings from the supplement of paper PMC5998384 are described below.

For data set [1], the system named is HeLa Kyoto. Briefly: solubility in G1/S (NP-40 vs SDS abundance) (log2 ratio); higher = more soluble. The settings on record: cell cycle stage: G1/S.
The test system of data set [2] is HeLa Kyoto. Briefly: thermal stability score vs G1/S (z-score of summed log2 fold changes over temperatures); higher = more thermally stable than in G1/S.
For data set [3], the system named is HeLa Kyoto. Briefly: solubility change mitosis vs G1/S (difference of NP-40 vs SDS log2 ratios) (log2 ratio difference); higher = more soluble in mitosis.
The subject of data set [4] is HeLa Kyoto. Briefly: melting temperature (median over replicates), in situ; higher = more thermally stable.
Where [5] appears, read: cell cycle stage: early G1 (4.5 h after nocodazole release).
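For melting temperature (median over replicates), in situ in this document: HeLa Kyoto cells synchronized by double thymidine or nocodazole block, proteins quantified by TMT10plex mass spectrometry, three independent biological replicates.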
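For solubility change mitosis vs G1/S (difference of NP-40 vs SDS log2 ratios) in this document: synchronized HeLa Kyoto cells (double thymidine block for G1/S, nocodazole release for mitosis), protein amounts in NP-40 versus SDS lysates quantified by mass spectrometry, three biological replicates.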
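For solubility in G1/S (NP-40 vs SDS abundance) in this document: HeLa Kyoto cells arrested at G1/S by double thymidine block, proteins quantified by TMT10plex mass spectrometry in mild NP-40 versus SDS extracts, three biological replicates.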
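For thermal stability score vs G1/S (z-score of summed log2 fold changes over temperatures) in this document: synchronized HeLa Kyoto cells, proteins quantified by TMT10plex mass spectrometry, three biological replicates, mitosis taken 0.5 h after nocodazole release, G1/S directly after double thymidine block.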

Take “MSTGDSFETRFEKMDNLLRDPKSEVNSDCLLDGLDALVYDLDFPALRKNKNIDNFLSRYKDTINKIRDLRMKAEDYEVVKVIGRGAFGEVQLVRHKSTRKVYAMKLLSKFEMIKRSDSAFFWEERDIMAFANSPWVVQLFYAFQDDRYLYMVMEYMPGGDLVNLMSNYDVPEKWARFYTAEVVLALDAIHSMGFIHRDVKPDNMLLDKSGHLKLADFGTCMKMNKEGMVRCDTAVGTPDYISPEVLKSQGGDGYYGRECDWWSVGVFLYEMLVGDTPFYADSLVGTYSKIMNHKNSLTFPDDNDISKEAKNLICAFLTDREVRLGRNGVEEIKRHLFFKNDQWAWETLRDTVAPVVPDLSSDIDTSNFDDLEEDKGEEETFPIPKAFVGNQLPFVGFTYYSNRRYLSSANPNDNRTSSNADKSLQESLQKTIYKLEEQLHNEMQLKDEMEQKCRTSNIKLDKIMKELDEEGNQRRNLESTVSQIEKEKMLLQHRINEYQRKAEQENEKRRNVENEVSTLKDQLEDLKKVSQNSQLANEKLSQLQKQLEEANDLLRTESDTAVRLRKSHTEMSKSISQLESLNRELQERNRILENSKSQTDKDYYQLQAILEAERRDRGHDSEMIGDLQARITSLQEEVKHLKHNLEKVEGERKEAQDMLNHSEKEKNNLEIDLNYKLKSLQQRLEQEVNEHKVTKARLTDKHQSIEEAKSVAMCEMEKKLKEEREAREKAENRVVQIEKQCSMLDVDLKQSQQKLEHLTGNKERMEDEVKNLTLQLEQESNKRLLLQNELKTQAFEADNLKGLEKQMKQEINTLLEAKRLLEFELAQLTKQYRGNEGQMRELQDQLEAEQYFSTLYKTQVKELKEEIEEKNRENLKKIQELQNEKETLATQLDLAETKAESEQLARGLLEEQYFELTQESKKAASRNRQEITDKDHTVSRLEEANSMLTKDIEILRRENEELTEKMKKAEEEYKLEKEEEISNLKAAFEKNINTERTLKTQAVNKLAEIMNRKDFKIDRKKANTQDLRKKEKENRKLQLELNQEREKFNQMVVKHQKELNDMQAQLVEECAHRNELQMQLASKESDIEQLRAKLLDLSDSTSVASFPSADETDGNLPESRIEGWLSVPNRGNIKRYGWKKQYVVVSSKKILFYNDEQDKEQSNPSMVLDIDKLFHVRPVTQGDVYRAETEEIPKIFQILYANEGECRKDVEMEPVQQAEKTNFQNHKGHEFIPTLYHFPANCDACAKPLWHVFKPPPALECRRCHVKCHRDHLDKKEDLICPCKVSYDVTSARDMLLLACSQDEQKKWVTHLVKKIPKNPPSGFVRASPRTLSTRSTANQSFRKVVKNTSGKTS [ROCK1]”: the “solubility in G1/S (log2)” value in data set [1] was -0.0278. Besides, the thermal stability score was -0.147 in data set [2] (setting [5]) and -0.118 in data set [2] (cell cycle stage: mitosis). For the same substance, the “solubility change mitosis (log2)” value in data set [3] was -0.138. The melting temperature was 50.4 °C in data set [4] (cell cycle stage: G1/S) and 50.2 °C in data set [4] (cell cycle stage: mitosis).

Consider “MAGARAAAAAASAGSSASSGNQPPQELGLGELLEEFSRTQYRAKDGSGTGGSKVERIEKRCLELFGRDYCFSVIPNTNGDICGHYPRHIVFLEYESSEKEKDTFESTVQVSKLQDLIHRSKMARCRGRFVCPVILFKGKHICRSATLAGWGELYGRSGYNYFFSGGADDAWADVEDVTEEDCALRSGDTHLFDKVRGYDIKLLRYLSVKYICDLMVENKKVKFGMNVTSSEKVDKAQRYADFTLLSIPYPGCEFFKEYKDRDYMAEGLIFNWKQDYVDAPLSIPDFLTHSLNIDWSQYQCWDLVQQTQNYLKLLLSLVNSDDDSGLLVHCISGWDRTPLFISLLRLSLWADGLIHTSLKPTEILYLTVAYDWFLFGHMLVDRLSKGEEIFFFCFNFLKHITSEEFSALKTQRRKSLPARDGGFTLEDICMLRRKDRGSTTSLGSDFSLVMESSPGATGSFTYEAVELVPAGAPTQAAWRKSHSSSPQSVLWNRPQPSEDRLPSQQGLAEARSSSSSSSNHSDNFFRMGSSPLEVPKPRSVDHPLPGSSLSTDYGSWQMVTGCGSIQERAVLHTDSSLPFSFPDELPNSCLLAALSDRETRLQEVRSAFLAAYSSTVGLRAVAPSPSGAIGGLLEQFARGVGLRSISSNAL [MTMR14]”, for which the “solubility in G1/S (log2)” value in data set [1] was -0.145. Besides, the thermal stability score in data set [2] (setting [5]) is -0.497; in data set [2] (cell cycle stage: mitosis), -0.428. For the same substance, the “solubility change mitosis (log2)” value in data set [3] is -0.0972. In data set [4] (cell cycle stage: G1/S), this substance showed a melting temperature of 52.8 °C.

As for “MRPGGERPVEGGACNGRSELELLKLRSAECIDEAAERLGALSRAIWSQPELAYEEHHAHRVLTHFFEREPPAASWAVQPHYQLPTAFRAEWEPPEARAPSATPRPLHLGFLCEYDALPGIGHACGHNLIAEVGAAAALGVRGALEGLPRPPPPVKVVVLGTPAEEDGGGKIDLIEAGAFTNLDVVFMAHPSQENAAYLPDMAEHDVTVKYYGKASHSASYPWEGLNALDAAVLAYNNLSVFRQQMKPTWRVHGIIKNGGVKPNIIPSYSELIYYFRAPSMKELQVLTKKAEDCFRAAALASGCTVEIKGGAHDYYNVLPNKSLWKAYMENGRKLGIEFISEDTMLNGPSGSTDFGNVSFVVPGIHPYFHIGSNALNHTEQYTEAAGSQEAQFYTLRTAKALAMTALDVIFKPELLEGIREDFKLKLQEEQFVNAVE [PM20D2]”, the “solubility in G1/S (log2)” value in data set [1] worked out at 0.167. Further, the figures for the thermal stability score in data set [2] (setting [5]) and in data set [2] (cell cycle stage: mitosis) were -0.942 and -1.84, respectively. Moreover, in data set [3], the “solubility change mitosis (log2)” value worked out at 0.0574. The melting temperature in data set [4] (cell cycle stage: G1/S) was determined as 52.7 °C; in data set [4] (cell cycle stage: mitosis), 52.2 °C.

As for MYOF, the “solubility in G1/S (log2)” value in data set [1] was -0.326. Besides, the thermal stability score in data set [2] (setting [5]) is -1.57; in data set [2] (cell cycle stage: mitosis), -1.2. Besides, in data set [3], the “solubility change mitosis (log2)” value was -0.129. In addition, the melting temperature came out at 53.8 °C in data set [4] (cell cycle stage: G1/S) and 53.4 °C in data set [4] (cell cycle stage: mitosis).

“MSRGGSYPHLLWDVRKRSLGLEDPSRLRSRYLGRREFIQRLKLEATLNVHDGCVNTICWNDTGEYILSGSDDTKLVISNPYSRKVLTTIRSGHRANIFSAKFLPCTNDKQIVSCSGDGVIFYTNVEQDAETNRQCQFTCHYGTTYEIMTVPNDPYTFLSCGEDGTVRWFDTRIKTSCTKEDCKDDILINCRRAATSVAICPPIPYYLAVGCSDSSVRIYDRRMLGTRATGNYAGRGTTGMVARFIPSHLNNKSCRVTSLCYSEDGQEILVSYSSDYIYLFDPKDDTARELKTPSAEERREELRQPPVKRLRLRGDWSDTGPRARPESERERDGEQSPNVSLMQRMSDMLSRWFEEASEVAQSNRGRGRSRPRGGTSQSDISTLPTVPSSPDLEVSETAMEVDTPAEQFLQPSTSSTMSAQAHSTSSPTESPHSTPLLSSPDSEQRQSVEASGHHTHHQSDNNNEKLSPKPGTGEPVLSLHYSTEGTTTSTIKLNFTDEWSSIASSSRGIGSHCKSEGQEESFVPQSSVQPPEGDSETKAPEESSEDVTKYQEGVSAENPVENHINITQSDKFTAKPLDSNSGERNDLNLDRSCGVPEESASSEKAKEPETSDQTSTESATNENNTNPEPQFQTEATGPSAHEETSTRDSALQDTDDSDDDPVLIPGARYRAGPGDRRSAVARIQEFFRRRKERKEMEELDTLNIRRPLVKMVYKGHRNSRTMIKEANFWGANFVMSGSDCGHIFIWDRHTAEHLMLLEADNHVVNCLQPHPFDPILASSGIDYDIKIWSPLEESRIFNRKLADEVITRNELMLEETRNTITVPASFMLRMLASLNHIRADRLEGDRSEGSGQENENEDEE [DCAF6]”: the “solubility in G1/S (log2)” value in data set [1] is -0.176. Further, the figures for the thermal stability score in data set [2] (setting [5]) and in data set [2] (cell cycle stage: mitosis) were -1.47 and -2.02, respectively. Further, in data set [3], the “solubility change mitosis (log2)” value is 0.0043. For the same substance, the melting temperature in data set [4] (cell cycle stage: G1/S) was determined as 54.7 °C; in data set [4] (cell cycle stage: mitosis) it was 54.9 °C.

Take ITPR1: in data set [1], the “solubility in G1/S (log2)” value was -0.349. The thermal stability score in data set [2] (setting [5]) amounted to 0.726; in data set [2] (cell cycle stage: mitosis) it was 1.96. Moreover, in data set [3], the “solubility change mitosis (log2)” value was -0.0166. Moreover, the melting temperature stood at 49.8 °C in data set [4] (cell cycle stage: G1/S) and 50.2 °C in data set [4] (cell cycle stage: mitosis).

For “MNHLNVLAKALYDNVAESPDELSFRKGDIMTVLEQDTQGLDGWWLCSLHGRQGIVPGNRLKILVGMYDKKPAGPGPGPPATPAQPQPGLHAPAPPASQYTPMLPNTYQPQPDSVYLVPTPSKAQQGLYQVPGPSPQFQSPPAKQTSTFSKQTPHHPFPSPATDLYQVPPGPGGPAQDIYQVPPSAGMGHDIYQVPPSMDTRSWEGTKPPAKVVVPTRVGQGYVYEAAQPEQDEYDIPRHLLAPGPQDIYDVPPVRGLLPSQYGQEVYDTPPMAVKGPNGRDPLLEVYDVPPSVEKGLPPSNHHAVYDVPPSVSKDVPDGPLLREETYDVPPAFAKAKPFDPARTPLVLAAPPPDSPPAEDVYDVPPPAPDLYDVPPGLRRPGPGTLYDVPRERVLPPEVADGGVVDSGVYAVPPPAEREAPAEGKRLSASSTGSTRSSQSASSLEVAGPGREPLELEVAVEALARLQQGVSATVAHLLDLAGSAGATGSWRSPSEPQEPLVQDLQAAVAAVQSAVHELLEFARSAVGNAAHTSDRALHAKLSRQLQKMEDVHQTLVAHGQALDAGRGGSGATLEDLDRLVACSRAVPEDAKQLASFLHGNASLLFRRTKATAPGPEGGGTLHPNPTDKTSSIQSRPLPSPPKFTSQDSPDGQYENSEGGWMEDYDYVHLQGKEEFEKTQKELLEKGSITRQGKSQLELQQLKQFERLEQEVSRPIDHDLANWTPAQPLAPGRTGGLGPSDRQLLLFYLEQCEANLTTLTNAVDAFFTAVATNQPPKIFVAHSKFVILSAHKLVFIGDTLSRQAKAADVRSQVTHYSNLLCDLLRGIVATTKAAALQYPSPSAAQDMVERVKELGHSTQQFRRVLGQLAAA [BCAR1]”, the “solubility in G1/S (log2)” value in data set [1] was 0.471. Also, the thermal stability score in data set [2] (setting [5]) is 0.46; in data set [2] (cell cycle stage: mitosis) it was 2.67. Further, in data set [3], the “solubility change mitosis (log2)” value turned out to be 0.0584. Further, the melting temperature in data set [4] (cell cycle stage: G1/S) was found to be 49.1 °C; in data set [4] (cell cycle stage: mitosis), 49.4 °C.
